Results on 2 molecules are retold here after article doi:10.1101/2024.07.08.602401 (bioRxiv, 2024).

The target of one assay is HLA-E-VL9 complex (Homo sapiens, HLA-E*01:03, strain). Kind of assay: BLI.
The target of assay [1] is HLA-E-… single chain trimer on transfected 293T cells (Homo sapiens HLA-E*01:03 assumed; …). Kind of assay: flow cytometry on cells.
In assay [2] the target is HLA-E-[…] single chain trimer on transfected 293T cells (Homo sapiens HLA-E*01:03 assumed; …). Kind of assay: flow cytometry on cells. (Flow cytometry measures light scatter and fluorescence of single cells or particles in a stream.)

B1: 3H4v31 IgG1 (antibody, V domains shown)
VH: EVQLQESGPELVKPGASVKIPCKASGYTFTDYNMDWVKQSHGKSLEWIGDINPNNGGTIYNQKFKGKATLTVDKSSSTAYMELRSLTSEDTAVYYCARPDSAQYRWNWYFDVWGTGTTVTVSS
VL: DIVITQSPSSMYASLGERVTITCKASQDINSYLSWFQQKPGKSPKTLIYRANRLVDGVPSRFSGSGSGQDYSLTISSLEYEDMGIYYCLQYDEFPLTFGAGTKLELK
For the molecule B1, binding with HLA-E-VL9 complex was characterised by a dissociation constant (Kd) of 11.5 nM.

B2: wildtype 3H4 IgG1 (antibody, V domains shown)
VH: EVQLQESGPELVKPGASVKIPCKASGYTFTDYNMDWVKQSHGKSLEWIGDINPNNGGTIYNQKFKGKATLTVDKSSSTAYMELRSLTSEDTAVYYCARPDYYGSSYGWYFDVWGTGTTVTVSS
VL: DIVITQSPSSMYASLGERVTITCKASQDINSYLSWFQQKPGKSPKTLIYRANRLVDGVPSRFSGSGSGQDYSLTISSLEYEDMGIYYCLQYDEFPLTFGAGTKLELK
Consider B2, for which the binding result in assay [1] and in assay [2] was “binds” in each case.
